What was measured:
HLA-A*01:01 [1] = test: IEDB peptide-MHC binding, purified MHC/direct/fluorescence; filed as Kd, often an IC50 or EC50 that approximates it; ≥ and ≤ were set here for values at or beyond the usual limits of such assays
HLA-A*02:01 = test: as above
HLA-A*03:01 [2] = test: as above
HLA-A*11:01 = test: as above
HLA-A*24:02 = test: as above; details: source organism: Vibrio parahaemolyticus
HLA-A*26:01 [3] = test: as above
HLA-A*31:01 [4] = test: as above
HLA-A*69:01 = test: as above
HLA-B*07:02 = test: as above
HLA-B*08:02 = test: as above; details: source organism: Vibrio parahaemolyticus RIMD 2210633
HLA-B*15:01 [5] = test: as above
HLA-B*18:01 [6] = test: as above
HLA-B*27:05 = test: as above
HLA-B*40:01 = test: as above
HLA-B*44:02 = test: as above; details: source organism: Vibrio parahaemolyticus
HLA-B*46:01 = test: as above
HLA-B*58:01 [7] = test: as above
HLA-B*08:01 = test: IEDB peptide-MHC binding, purified MHC/competitive/fluorescence; filed as Kd, often an IC50 or EC50 that approximates it; ≥ and ≤ were set here for values at or beyond the usual limits of such assays
HLA-B*51:01 = test: as above; details: source organism: Yersinia pestis Antiqua
HLA-B*48:01 = test: IEDB peptide-MHC binding, purified MHC/direct/fluorescence; filed as Kd, often an IC50 or EC50 that approximates it; ≥ and ≤ were set here for values at or beyond the usual limits of such assays; details: source organism: Camelpox virus M-96
HLA-B*57:01 = test: as above; details: source organism: Camelpox virus M-96
HLA-A*02:06 = test: IEDB peptide-MHC binding, purified MHC/competitive/fluorescence; filed as Kd, often an IC50 or EC50 that approximates it; ≥ and ≤ were set here for values at or beyond the usual limits of such assays; details: source organism: Vaccinia virus WR
HLA-A*30:01 = test: as above; details: source organism: Vaccinia virus WR
HLA-B*15:01 [8] = test: as above
HLA-B*15:17 = test: as above; details: source organism: Vaccinia virus WR
HLA-B*18:01 [9] = test: as above; details: source organism: Vaccinia virus WR
HLA-B*35:01 = test: as above
HLA-A*31:01 [10] = test: as above; details: source organism: Vaccinia virus WR
HLA-A*68:02 = test: as above; details: source organism: Vaccinia virus WR
HLA-A*03:01 [11] = test: as above
HLA-B*58:01 [12] = test: as above
HLA-A*01:01 [13] = test: as above; details: source organism: Salmonella enterica subsp. enterica serovar Typhi
HLA-A*26:01 [14] = test: as above
[15] = source organism: Vibrio parahaemolyticus
[16] = source organism: Camelpox virus M-96
[17] = source organism: Shigella flexneri 5 str. 8401
[18] = source organism: Bacillus anthracis str. A2012
[19] = source organism: Salmonella enterica subsp. enterica serovar Typhi
[20] = source organism: Yersinia pestis Nepal516

ALSMGINTV
Kd (HLA-A*01:01 [1]; [15]): ≥ 20000 nM | Kd (HLA-A*02:01; [15]): 35.6 nM | Kd (HLA-A*03:01 [2]; [15]): ≥ 20000 nM | Kd (HLA-A*11:01; [15]): ≥ 20000 nM | Kd (HLA-A*24:02): ≥ 20000 nM | Kd (HLA-A*26:01 [3]; source organism: Vibrio parahaemolyticus RIMD 2210633): ≥ 20000 nM | Kd (HLA-A*31:01 [4]; [15]): ≥ 20000 nM | Kd (HLA-A*69:01; [15]): 2000 nM | Kd (HLA-B*07:02; [15]): ≥ 20000 nM | Kd (HLA-B*08:02): ≥ 20000 nM | Kd (HLA-B*15:01 [5]; [15]): ≥ 20000 nM | Kd (HLA-B*18:01 [6]; [15]): ≥ 20000 nM | Kd (HLA-B*27:05; [15]): ≥ 20000 nM | Kd (HLA-B*40:01; [15]): ≥ 20000 nM | Kd (HLA-B*44:02): ≥ 20000 nM | Kd (HLA-B*46:01; [15]): ≥ 20000 nM | Kd (HLA-B*58:01 [7]; [15]): ≥ 20000 nM | Kd (HLA-B*08:01; source organism: Vibrio parahaemolyticus K5030): ≥ 20000 nM

EAKLFFQVI
Kd (HLA-B*08:01; source organism: Yersinia pestis Antiqua): 755 nM | Kd (HLA-B*51:01): 726 nM

FVHTLLKTY
Kd (HLA-A*01:01 [1]; [16]): ≥ 20000 nM | Kd (HLA-A*02:01; [16]): ≥ 20000 nM | Kd (HLA-A*03:01 [2]; [16]): ≥ 20000 nM | Kd (HLA-A*11:01; [16]): ≥ 20000 nM | Kd (HLA-A*26:01 [3]; [16]): 73.3 nM | Kd (HLA-A*31:01 [4]; [16]): ≥ 20000 nM | Kd (HLA-A*69:01; [16]): ≥ 20000 nM | Kd (HLA-B*27:05; [16]): ≥ 20000 nM | Kd (HLA-B*40:01; [16]): ≥ 20000 nM | Kd (HLA-B*48:01): ≥ 20000 nM | Kd (HLA-B*57:01): ≥ 20000 nM | Kd (HLA-B*58:01 [7]; [16]): ≥ 20000 nM | Kd (HLA-A*02:06): 2970 nM | Kd (HLA-A*30:01): ≥ 20000 nM | Kd (HLA-B*15:01 [8]; source organism: Vaccinia virus WR): 308 nM | Kd (HLA-B*15:17): 55.4 nM | Kd (HLA-B*18:01 [9]): ≥ 20000 nM

LMLADHPEY
Kd (HLA-B*15:01 [5]; source organism: Mycobacterium tuberculosis): 313 nM | Kd (HLA-B*35:01; source organism: Mycobacterium tuberculosis C): 18.6 nM

LTFLHTLYK
Kd (HLA-A*01:01 [1]; [16]): ≥ 20000 nM | Kd (HLA-A*02:01; [16]): ≥ 20000 nM | Kd (HLA-A*03:01 [2]; [16]): 160 nM | Kd (HLA-A*11:01; [16]): 104 nM | Kd (HLA-A*69:01; [16]): ≥ 20000 nM | Kd (HLA-B*07:02; [16]): ≥ 20000 nM | Kd (HLA-B*15:01 [5]; [16]): ≥ 20000 nM | Kd (HLA-B*18:01 [6]; [16]): ≥ 20000 nM | Kd (HLA-B*27:05; [16]): ≥ 20000 nM | Kd (HLA-B*40:01; [16]): ≥ 20000 nM | Kd (HLA-B*46:01; [16]): ≥ 20000 nM | Kd (HLA-B*48:01): ≥ 20000 nM | Kd (HLA-B*57:01): ≥ 20000 nM | Kd (HLA-B*58:01 [7]; [16]): ≥ 20000 nM | Kd (HLA-A*02:06): 1090 nM | Kd (HLA-A*31:01 [10]): 224 nM | Kd (HLA-A*68:02): 1090 nM | Kd (HLA-B*15:17): 226 nM

MFAAGLILY
Kd (HLA-A*03:01 [11]; [17]): ≥ 20000 nM | Kd (HLA-B*15:01 [8]; [17]): ≥ 20000 nM | Kd (HLA-B*35:01; [17]): 1060 nM

MGMNAYFAY
Kd (HLA-B*15:01 [8]; [18]): 61.2 nM | Kd (HLA-B*35:01; [18]): ≤ 0.1 nM

VSFLISWSL
Kd (HLA-B*58:01 [12]; [18]): 2610 nM

VTIGNAYIY
Kd (HLA-A*01:01 [13]): 3500 nM | Kd (HLA-A*03:01 [11]; [19]): ≥ 20000 nM | Kd (HLA-A*26:01 [14]; [19]): 1050 nM | Kd (HLA-B*58:01 [12]; [19]): 62.5 nM

VVNDFTVSY
Kd (HLA-A*03:01 [11]; [20]): 122 nM | Kd (HLA-A*26:01 [14]; [20]): 225 nM | Kd (HLA-B*35:01; [20]): 3.5 nM
